Source: patent US20220064322A1 (JACOBIO PHARMACEUTICALS, published 2022)

Columns and labels:
[1] = target: T1, cynomolgus CD73 on the cell surface (293T/17-cynoCD73 cells) (cynomolgus (Macaca fascicularis), UniProt P21589 27-547 (human entry)); assay: cell-based or functional assay
T1 chain: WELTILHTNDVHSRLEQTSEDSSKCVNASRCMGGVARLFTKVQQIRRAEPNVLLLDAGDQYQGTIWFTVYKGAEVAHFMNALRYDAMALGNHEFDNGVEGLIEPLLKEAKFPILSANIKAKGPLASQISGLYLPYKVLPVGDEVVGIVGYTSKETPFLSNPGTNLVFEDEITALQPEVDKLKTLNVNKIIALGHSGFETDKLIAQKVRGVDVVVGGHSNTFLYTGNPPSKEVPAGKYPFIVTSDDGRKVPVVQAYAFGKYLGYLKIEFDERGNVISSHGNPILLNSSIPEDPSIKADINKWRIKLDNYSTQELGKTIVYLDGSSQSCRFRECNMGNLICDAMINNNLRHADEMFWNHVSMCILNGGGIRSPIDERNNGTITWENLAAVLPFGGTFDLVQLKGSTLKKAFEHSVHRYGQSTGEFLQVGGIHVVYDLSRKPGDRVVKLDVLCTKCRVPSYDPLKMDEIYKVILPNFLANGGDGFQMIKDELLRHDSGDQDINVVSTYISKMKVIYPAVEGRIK

[2] = target: T1, cynomolgus CD73 on the cell surface …; assay: flow cytometry on 293T/17-Cyno CD73 cells
Description: (§1) 2×10⁶ cells resuspended in PBS buffer were distributed into 96-well plates and incubated with gradient diluted humanized antibodies for 1 h at refrigerator 4° C. or on ice, then the cells was centrifuged for 3 min 1500 rpm at 4° C. and washed three times by PBS, and diluted APC-labeled goat anti-human polyclonal antibody (Biolegend) were incubated for 30 min at refrigerator 4° C. Finally, the cells were washed three times with PBS as described above and analyzed on MACSQuant flow cytometer. GraphPad Prism software was used to generate data graphs and statistical affinity data.
(§2) The samples to be tested were incubated for 1 h at 4° C. after gradient dilution. After washing, 100 μL of APC-labeled secondary antibody was added to each well and incubated for 30 min. After washing, detecting on machine and the fluorescence value was read. GraphPad Prism software was used to generate data graphs and statistical affinity data.

[3] = target: T2, human CD73 ecto-domain recombinant protein (huCD73) (human, UniProt P21589 27-547); assay: indirect ELISA, coated huCD73 recombinant protein
T2 construct: also called soluble huCD73; soluble recombinant CD73
T2 sequence: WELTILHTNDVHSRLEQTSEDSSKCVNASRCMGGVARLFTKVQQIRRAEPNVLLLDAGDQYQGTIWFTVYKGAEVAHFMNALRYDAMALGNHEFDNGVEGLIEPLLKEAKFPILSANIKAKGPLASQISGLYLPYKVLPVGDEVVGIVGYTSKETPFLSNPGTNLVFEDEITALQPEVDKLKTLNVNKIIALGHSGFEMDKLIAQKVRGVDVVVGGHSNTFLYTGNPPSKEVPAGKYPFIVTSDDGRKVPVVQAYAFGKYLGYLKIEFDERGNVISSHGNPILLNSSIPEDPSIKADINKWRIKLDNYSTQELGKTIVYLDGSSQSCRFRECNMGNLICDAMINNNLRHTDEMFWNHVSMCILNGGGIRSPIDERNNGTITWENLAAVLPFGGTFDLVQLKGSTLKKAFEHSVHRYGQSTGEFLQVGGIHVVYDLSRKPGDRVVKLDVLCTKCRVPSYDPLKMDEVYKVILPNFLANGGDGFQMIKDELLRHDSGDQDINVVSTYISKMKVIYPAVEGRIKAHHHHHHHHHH
Description: (§3) Incubated with gradient diluted 100 μL/well of antibodies for 1 h at room temperature. After the plates were washed 3 times with 200 ul/well of PBST, 100 ul of diluted HRP-labeled secondary antibody at a ratio of 1:5000 was added to each well, and the plates were incubated for 1 hour at room temperature. The plates were washed 3 times with 200 ul/well of PBST, 100 ul of TMB was added to each well and reacted for 5 minutes at room temperature in the dark. […] read the OD value. The affinity of humanized antibodies and parent antibodies were similar to the antigen (table 9).

[4] = target: T1, cynomolgus CD73 on the cell surface …; assay: flow cytometry on 293T/17-Cyno CD73 cells, curve fit
Description: as §1, §2

[5] = target: T2, human CD73 ecto-domain recombinant …; assay: indirect ELISA, coated huCD73 recombinant protein, curve fit
Description: as §3

[6] = target: T1, cynomolgus CD73 on the cell surface …; assay: flow cytometry on 293T/17 cells expressing cynoCD73, APC-labelled goat anti-human antibody, MFI
Description: as §1, §2

[7] = target: T2, human CD73 ecto-domain recombinant …; assay: indirect ELISA, plate coated with 1 ug/ml huCD73 recombinant protein, HRP-labelled secondary antibody, RFU
Description: as §3

B1: JB94H1L3 (antibody, human IgG1, kappa)
heavy: not shown
light: DIQMTQSPSSLSASVGDRVTITCKASQDINTYLSWFQQKPGKSPKSLIYRSNILVDGVPSRFSGSGSGQDYTLTISSLQPEDFAIYYCLQYDDFPYTFGQGTKLEIKRTVAAPSVFIFPPSDEQLKSGTASVVCLLNNFYPREAKVQWKVDNALQSGNSQESVTEQDSKDSTYSLSSTLTLSKADYEKHKVYACEVTHQGLSSPVTKSFNRGEC
notes: Humanized antibody of the 94 clone, human IgG1 / kappa
For B1, the “IC50, blockade of 5'exonuclease activity on 293T/17-Cyno CD73 cells” value [1] was 0.017 nM, the EC50 [2] was 5.42 nM and the EC50 [3] was 0.0289 nM. For the same binder, the Bottom [4] was 1.51 fluorescence, the Top [4] was 78.7 fluorescence and the Bottom [5] was 48.7 OD value. The Top [5] was 8290 OD value, the “EC50 (read off the curve)” value [6] was ~5 nM and the “EC50 (read off the curve)” value [7] was ~0.03 µg/mL.
